Measurements reported in paper PMC5036187 (Scientific Reports, 2016).
Changes are numbered by the printed parent chain.

B1: humanized YP7 antibody, IgG format (human IgG1 kappa) (antibody, V domains shown)
VH: EVQLVESGGGLVQPGGSLRLSCAASGFTFNKNAMNWVRQAPGKGLEWVGRIRNKTNNYATYYADSVKARFTISRDDSKNSLYLQMNSLKTEDTAVYYCVAGNSFAYWGQGTLVTVS
VL: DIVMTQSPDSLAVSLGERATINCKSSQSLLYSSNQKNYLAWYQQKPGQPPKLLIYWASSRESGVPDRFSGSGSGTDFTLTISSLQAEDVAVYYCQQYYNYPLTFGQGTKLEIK
notes: also called hYP7; hYP7 IgG
B2: humanized YP9.1b antibody, IgG format (human IgG1 kappa) (antibody, V domains shown)
VH: B1 VH with T28N, K31T, I51V, A68D
VL: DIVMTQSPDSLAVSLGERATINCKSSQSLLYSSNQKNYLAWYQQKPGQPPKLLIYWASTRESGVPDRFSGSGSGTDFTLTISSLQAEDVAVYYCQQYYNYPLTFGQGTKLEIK
notes: also called hYP9.1b; hYP9.1b IgG

Molecular target: T1, Glypican-3 (GPC3) on G1 cells (Homo sapiens, UniProt P51654)
T1 construct: also called GPC3+ cells (G1)
Experiment: flow cytometry on cells
Details: one partner purified

T1 sequence (P51654 25-580): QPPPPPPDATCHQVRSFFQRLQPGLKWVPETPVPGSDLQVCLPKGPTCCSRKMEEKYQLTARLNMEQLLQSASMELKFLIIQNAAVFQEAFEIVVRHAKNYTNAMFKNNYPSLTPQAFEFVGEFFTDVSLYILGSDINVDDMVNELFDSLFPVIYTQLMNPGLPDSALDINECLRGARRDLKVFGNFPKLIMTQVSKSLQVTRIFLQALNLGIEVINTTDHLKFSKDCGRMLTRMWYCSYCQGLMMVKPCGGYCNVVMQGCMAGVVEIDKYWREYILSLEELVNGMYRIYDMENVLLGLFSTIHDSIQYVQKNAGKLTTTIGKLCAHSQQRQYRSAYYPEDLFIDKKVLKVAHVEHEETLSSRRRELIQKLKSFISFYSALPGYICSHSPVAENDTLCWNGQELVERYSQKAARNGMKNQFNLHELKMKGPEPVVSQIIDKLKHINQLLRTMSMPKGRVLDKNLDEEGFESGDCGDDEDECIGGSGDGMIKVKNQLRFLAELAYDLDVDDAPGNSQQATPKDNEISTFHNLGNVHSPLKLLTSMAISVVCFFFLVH

Row | Binder | EC50 [nM]
1 | B1 | 0.7
2 | B2 | 0.4
